How the values were obtained:
[1] = biological target: Monoglycosylated IgG1-Fc (high mannose glycan at a single CH2 domain of the dimer) (human); experiment: BLI
[2] = biological target: Diglycosylated IgG1-Fc (high mannose glycans at both CH2 domains of the dimer) (human); experiment: BLI

Kd [1]: 100 nM
Kd [2]: 32 nM
Substance: Fc γ receptor IIIA, soluble domain of the high affinity V158 polymorph
